According to PMC11241375, “In Silico Screening of Bioactive Peptides in Stout Beer and Analysis of ACE Inhibitory Activity” (Foods, 2024):
Like-named read-outs stand apart in the source and are kept apart here. No end group written: not given here.

Key:
[1] = target: T1, ACE (Homo sapiens, UniProt P12821); assay: ACEI activity in vitro (ACE activity assay kit); type: biochemical; conditions: 10 μL ACE + 40 μL inhibitor + 50 μL substrate, fluorescence ex 320 nm/em 405 nm, 37 °C, 30 min, synthesized peptide, triplicate, mean ± SD
T1 construct: purchased Sigma-Aldrich
Protocol: ACEI activity determination was determined using an assay kit. Briefly, 10 μL of ACE and 40 μL of the inhibitor were added to the microplate and mixed thoroughly, then 50 μL of the substrate was added to start the reaction. The fluorescence was detected at an excitation wavelength of 320 nm and an emission wavelength of 405 nm at 37 °C for 30 min. The ACE activity of the peptide was calculated as follows:ACEI activity = [(KStd − KSample)/KStd] × DF × 100% where KSample means the slope of the sample curve after subtracting the blank. (RFU/min); KStd means the slope of the standard curve after subtracting the blank (RFU/min); DF means the dilution factor.
Each experiment was conducted in triplicate, the data were presented as mean ± standard deviation. SYBYL-X 2.1.1 software was utilized for evaluating the molecular docking visualization. LigPlot 1.4.5 software was employed to illustrate the 2D interactions. MD simulation data analysis was performed using GROMACS 2022.3 software.

[2] = target: T1, ACE; conditions: cited from earlier work
Text: Recently, several ACEI peptides have been identified and evaluated in brewed wine. Wu et al. discovered a polypeptide in Chinese Baijiu for the first time, which indicated an ACE inhibitory effect with an IC50 of […] [11]. […] Beer is one of the most globally cons ... || In this study, peptides in stout beer were identified using UPLC-Q-Orbitrap-MS^2, and a total of 41 peptides with ALC ≥ 85% were selected (Table 1). The peptides PMAPLPRSGPE and […] from Italian beer, LPQQQAQFK, STEWHLD, PPPVHD, LVLPGELAK, LAVMQQQQQQ, PPPVHDTD, PPVPHDTD, LPEDAKVE, HAVSEGTKAVT, LPGELAK, PMAPLPRSGEP, TVSGF, LNFDPNR, LALDTRVG, LDTRVGV, and RVALVY from draft beer, which were previously identified, also appeared in our results. The polypeptides present in beer primarily originate from malt protein. Previous studies have shown that the soluble protein content in m ...

[3] = peptides identified from Qingke Baijiu
[4] = known ACEI peptides in BIOPEP/AHTPDB

T1 sequence (P12821 30-1306, species assumed): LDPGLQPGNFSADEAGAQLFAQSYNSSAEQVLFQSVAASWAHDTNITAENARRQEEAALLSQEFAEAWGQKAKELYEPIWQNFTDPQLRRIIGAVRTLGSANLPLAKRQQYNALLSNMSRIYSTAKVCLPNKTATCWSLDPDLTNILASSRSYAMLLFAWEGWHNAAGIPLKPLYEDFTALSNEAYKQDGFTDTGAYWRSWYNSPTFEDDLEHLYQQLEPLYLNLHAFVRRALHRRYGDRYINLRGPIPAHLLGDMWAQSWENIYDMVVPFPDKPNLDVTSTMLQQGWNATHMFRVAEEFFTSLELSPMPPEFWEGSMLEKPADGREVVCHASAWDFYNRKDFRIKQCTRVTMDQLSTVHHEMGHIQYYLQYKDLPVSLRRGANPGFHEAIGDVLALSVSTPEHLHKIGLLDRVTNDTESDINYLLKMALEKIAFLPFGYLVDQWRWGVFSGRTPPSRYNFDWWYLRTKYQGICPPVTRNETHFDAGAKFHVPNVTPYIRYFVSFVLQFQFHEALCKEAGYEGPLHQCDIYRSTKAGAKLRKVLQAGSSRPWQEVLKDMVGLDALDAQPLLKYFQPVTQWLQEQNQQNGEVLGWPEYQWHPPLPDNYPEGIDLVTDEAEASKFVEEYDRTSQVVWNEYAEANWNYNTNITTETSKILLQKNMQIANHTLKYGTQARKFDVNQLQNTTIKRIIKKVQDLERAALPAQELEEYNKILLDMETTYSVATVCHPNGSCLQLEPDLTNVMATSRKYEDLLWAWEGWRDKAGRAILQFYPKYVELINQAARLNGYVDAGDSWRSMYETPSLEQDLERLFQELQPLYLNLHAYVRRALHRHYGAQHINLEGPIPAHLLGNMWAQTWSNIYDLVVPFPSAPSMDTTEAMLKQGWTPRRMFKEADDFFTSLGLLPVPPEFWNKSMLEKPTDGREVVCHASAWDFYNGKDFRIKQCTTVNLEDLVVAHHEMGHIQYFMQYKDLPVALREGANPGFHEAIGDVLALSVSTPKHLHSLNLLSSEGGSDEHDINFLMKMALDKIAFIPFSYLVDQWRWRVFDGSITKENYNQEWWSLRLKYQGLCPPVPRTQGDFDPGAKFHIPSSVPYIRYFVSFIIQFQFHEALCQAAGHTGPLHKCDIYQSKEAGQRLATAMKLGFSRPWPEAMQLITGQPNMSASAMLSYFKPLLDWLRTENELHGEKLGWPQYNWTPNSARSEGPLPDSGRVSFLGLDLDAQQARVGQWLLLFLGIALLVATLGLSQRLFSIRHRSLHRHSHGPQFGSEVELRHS

Substance	IC50 [2, 3] [µM]	IC50 [2, 4] [µM]	other results
DLGGFFGFQR [DLGGFFGFQR]			IC50 [1]: 24.5 µM
FPLQPHQP [peptide from Qingke Baijiu, reference compound]	5.03		
LNFDPNR [peptide of stout beer; already known ACEI peptide]		38.6	
LPQQQAQFK [peptide of stout beer; already known ACEI peptide]		26.4	
LPVGP [peptide from Qingke Baijiu, reference compound]	9.05		
